Laboratory results as given in US20240116985A1 (published 2024).
Blank lines part the entries; values can stand above or below the binder they belong to. Starred links: 1 amine or outer side, 2 acyl side, 3 side chain; linkers in the order of their positions; H or OH if unused. Positions of bridges follow the written chain, without caps; N, C: chain ends. Non-standard residues stand in square brackets, D forms with d. Primed or numbered codes have the meaning given here. ReN = (R)-5-(((allyloxy)carbonyl)(methyl)amino)-2-amino-2-methylpentanoic acid, stapling residue, C=CCOC(=O)N(C)CCC[C@@](C)(N[*:1])C(=O)[*:2]; Az″ = 1-((allyloxy)carbonyl)-3-aminoazetidine-3-carboxylic acid (staple end via allyl carbamate), C=CCOC(=O)N1CC(N[*:1])(C(=O)[*:2])C1; PyrS(3) = (S)-1-((allyloxy)carbonyl)-3-aminopyrrolidine-3-carboxylic acid, stapling residue, C=CCOC(=O)N1CC[C@@](N[*:1])(C(=O)[*:2])C1; PyrS″ = (S)-1-((allyloxy)carbonyl)-3-aminopyrrolidine-3-carboxylic acid (stapling residue), C=CCOC(=O)N1CC[C@@](N[*:1])(C(=O)[*:2])C1; SeN = (S)-5-(((allyloxy)carbonyl)(methyl)amino)-2-amino-2-methylpentanoic acid, C=CCOC(=O)N(C)CCC[C@](C)(N[*:1])C(=O)[*:2]; RdN = (R)-4-(((allyloxy)carbonyl)(methyl)amino)-2-amino-2-methylbutanoic acid, C=CCOC(=O)N(C)CC[C@@](C)(N[*:1])C(=O)[*:2]; SdN = (S)-4-(((allyloxy)carbonyl)(methyl)amino)-2-amino-2-methylbutanoic acid, C=CCOC(=O)N(C)CC[C@](C)(N[*:1])C(=O)[*:2]; SgN = (S)-3-(((allyloxy)carbonyl)(methyl)amino)-2-amino-2-methylpropanoic acid, C=CCOC(=O)N(C)C[C@](C)(N[*:1])C(=O)[*:2]; PyrS = (S)-1-((allyloxy)carbonyl)-3-aminopyrrolidine-3-carboxylic acid, C=CCOC(=O)N1CC[C@@](N[*:1])(C(=O)[*:2])C1; Az(3) = 1-((allyloxy)carbonyl)-3-aminoazetidine-3-carboxylic acid, C=CCOC(=O)N1CC(N[*:1])(C(=O)[*:2])C1; R7″ = (R)-2-amino-2-methylnon-8-enoic acid (stapling residue), C=CCCCCC[C@@](C)(N[*:1])C(=O)[*:2]; R7 = (R)-2-amino-2-methylnon-8-enoic acid, C=CCCCCC[C@@](C)(N[*:1])C(=O)[*:2]; R6 = (R)-2-amino-2-methyloct-7-enoic acid, C=CCCCC[C@@](C)(N[*:1])C(=O)[*:2]; R4 = (R)-2-amino-2-methylhex-5-enoic acid, C=CCC[C@@](C)(N[*:1])C(=O)[*:2]; Phe(4-COOH) = N[C@@H](Cc1ccc(C(=O)O)cc1)C(=O)O; S7 = C[C@@](CCCCCC=[*:3])(N[*:1])C(=O)[*:2]; Bip = N[C@@H](Cc1ccc(-c2ccccc2)cc1)C(=O)O; 3Pal = N[C@@H](Cc1cccnc1)C(=O)O; R8 = C=CCCCCCC[C@@](C)(N)C(=O)O; Aad = N[C@@H](CCCC(=O)O)C(=O)O; Cha = N[C@@H](CC1CCCCC1)C(=O)O; S8 = C=CCCCCCC[C@](C)(N)C(=O)O; R5 = C=CCCC[C@@](C)(N)C(=O)O; hLeu = CC(C)CC[C@H](N)C(=O)O; S5 = C=CCCC[C@](C)(N)C(=O)O; Nle = CCCC[C@H](N)C(=O)O

Molecular target: T1, full-length beta-Catenin (Uniprot ID P35222) (Homo sapiens (Human), UniProt P35222 2-781)
T1 construct: The assay text says 'full-length'; also called B-Catenin; bCat
T1 sequence: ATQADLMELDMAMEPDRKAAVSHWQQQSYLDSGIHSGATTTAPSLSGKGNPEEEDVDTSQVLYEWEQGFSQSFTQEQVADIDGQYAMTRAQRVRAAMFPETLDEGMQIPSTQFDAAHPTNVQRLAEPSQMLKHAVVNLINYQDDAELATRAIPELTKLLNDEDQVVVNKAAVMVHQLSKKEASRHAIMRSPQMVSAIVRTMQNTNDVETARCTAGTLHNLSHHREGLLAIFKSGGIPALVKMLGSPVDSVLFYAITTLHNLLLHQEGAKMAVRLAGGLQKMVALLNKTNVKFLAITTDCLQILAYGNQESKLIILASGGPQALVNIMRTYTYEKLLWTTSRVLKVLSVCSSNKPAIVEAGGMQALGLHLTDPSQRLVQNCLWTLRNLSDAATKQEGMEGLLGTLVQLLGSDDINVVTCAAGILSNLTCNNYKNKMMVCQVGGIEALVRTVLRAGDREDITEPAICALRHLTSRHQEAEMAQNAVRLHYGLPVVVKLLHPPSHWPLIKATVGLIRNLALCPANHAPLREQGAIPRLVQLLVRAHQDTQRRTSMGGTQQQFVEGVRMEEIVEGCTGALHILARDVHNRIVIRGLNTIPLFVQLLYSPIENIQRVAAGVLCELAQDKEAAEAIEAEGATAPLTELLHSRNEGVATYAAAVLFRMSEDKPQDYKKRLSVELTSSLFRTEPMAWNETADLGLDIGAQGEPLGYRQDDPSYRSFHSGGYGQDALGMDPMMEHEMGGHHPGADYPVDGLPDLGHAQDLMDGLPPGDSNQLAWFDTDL
Assay: AlphaScreen competition vs biotin-TCF4(10-53) on full-length beta-catenin
Description: Equal volume of the titrated peptide was added to the plate and incubated for 15 minutes at 20° C. Then 4 uL of donor and 4 uL acceptor beads at 10 ug/mL were added to the plate, for a 16 uL reaction pool and protected from light for 60 minutes at 20° C. prior to read. Reads were performed on a CLARIOstar plate reader (BMG Labtech) in duplicate, and data were fitted to a 1:1 binding model with hill slope using an in-house script. All provided concentrations are final concentrations.

B2: I-18 (peptide)
peptide: Ac-FDA[R8]D[hLeu]AAFV[PyrS]FWQ-NH2
modifications: staple 4-11; not fully specified; printed as Ac-Phe-Asp-Ala-R8-Asp-hLeu-Ala-Ala-Phe-Val-PyrS-Phe-Trp-Gln-NH2
notes: Stapled peptide composition
EC50: ≥ 10 µM

B5: I-9 (peptide)
peptide: Ac-FDA[R8]D[3Pal]AAFV[PyrS″]FWQ-NH2
modifications: staple 4-11
notes: Stapled peptide composition
EC50: ≥ 10 µM

B6: I-24 (peptide)
peptide: Ac-FDA[R8]DDA[Aad]FV[PyrS]FWQ-NH2
modifications: staple 4-11; not fully specified; printed as Ac-Phe-Asp-Ala-R8-Asp-Asp-Ala-Aad-Phe-Val-PyrS-Phe-Trp-Gln-NH2
notes: Stapled peptide composition
EC50: 8.57 µM

B7: I-6 (peptide)
peptide: Ac-FDA[R8]D[Aad]AAFV[PyrS]FWQ-NH2
modifications: staple 4-11
notes: Stapled peptide composition
EC50: 6.5 µM

B10: I-3 (peptide)
peptide: Ac-FDA[R8]DEAAFV[PyrS″]FWQ-NH2
modifications: staple 4-11
notes: Stapled peptide composition
EC50: 9.13 µM

B11: I-19 (peptide)
peptide: Ac-FDA[R8]DDADFV[PyrS]FWQ-NH2
modifications: staple 4-11; not fully specified; printed as Ac-Phe-Asp-Ala-R8-Asp-Asp-Ala-Asp-Phe-Val-PyrS-Phe-Trp-Gln-NH2
notes: Stapled peptide composition
EC50: ≥ 10 µM

B12: I-22 (peptide)
peptide: Ac-FDA[R8]DDAEFV[PyrS]FWQ-NH2
modifications: staple 4-11; also: later-eluting HPLC isomer peak
notes: Stapled peptide composition
EC50: ≥ 10 µM

B13: I-21 (peptide)
peptide: Ac-FDA[R8]DDAEFV[PyrS]FWQ-NH2
modifications: staple 4-11; not fully specified; printed as Ac-Phe-Asp-Ala-R8-Asp-Asp-Ala-Glu-Phe-Val-PyrS-Phe-Trp-Gln-NH2
notes: Stapled peptide composition
EC50: ≥ 10 µM

B14: I-20 (peptide)
peptide: Ac-FDA[R8]DDADFV[PyrS]FWQ-NH2
modifications: staple 4-11; not fully specified; printed as Ac-Phe-Asp-Ala-R8-Asp-Asp-Ala-Asp-Phe-Val-PyrS-Phe-Trp-Gln-NH2
notes: Stapled peptide composition
EC50: ≥ 10 µM

B15: I-4 (peptide)
peptide: Ac-FDA[R8]DEAAFV[PyrS″]FWQ-NH2
modifications: staple 4-11; not fully specified; printed as Ac-Phe-Asp-Ala-R8-Asp-Glu-Ala-Ala-Phe-Val-PyrS-Phe-Trp-Gln-NH2
notes: Stapled peptide composition
EC50: 5.89 µM

B16: I-14 (peptide)
peptide: Ac-FDA[R8]D[Nle]AAFV[PyrS]FWQ-NH2
modifications: staple 4-11; not fully specified; printed as Ac-Phe-Asp-Ala-R8-Asp-nLeu-Ala-Ala-Phe-Val-PyrS-Phe-Trp-Gln-NH2
notes: Stapled peptide composition
EC50: 9.76 µM

B17: I-7 (peptide)
peptide: Ac-FDA[R8]D[Phe(4-COOH)]AAFV[PyrS″]FWQ-NH2
modifications: staple 4-11
notes: Stapled peptide composition
EC50: ≥ 10 µM

B18: I-2 (peptide)
peptide: Ac-FDA[RdN]DDAAFV[S7]FWQ-NH2
modifications: staple 4-11; also: later-eluting isomer of same sequence as I-1
notes: Stapled peptide composition
EC50: ≥ 10 µM

B19: I-8 (peptide)
peptide: Ac-FDA[R8]D[Phe(4-COOH)]AAFV[PyrS″]FWQ-NH2
modifications: staple 4-11
notes: Stapled peptide composition
EC50: ≥ 10 µM

B20: I-23 (peptide)
peptide: Ac-FDA[R8]DDA[Aad]FV[PyrS″]FWQ-NH2
modifications: staple 4-11; also: earlier-eluting HPLC peak
notes: Stapled peptide composition
EC50: 9.22 µM

B22: I-15 (peptide)
peptide: Ac-FDA[R8]D[Cha]AAFV[PyrS]FWQ-NH2
modifications: staple 4-11; not fully specified; printed as Ac-Phe-Asp-Ala-R8-Asp-Cha-Ala-Ala-Phe-Val-PyrS-Phe-Trp-Gln-NH2
notes: Stapled peptide composition
EC50: ≥ 10 µM

B25: I-10 (peptide)
peptide: Ac-FDA[R8]D[3Pal]AAFV[PyrS″]FWQ-NH2
modifications: staple 4-11
notes: Stapled peptide composition
EC50: ≥ 10 µM

B27: I-12 (peptide)
peptide: Ac-FDA[R8]D[Bip]AAFV[PyrS(3)]FWQ-NH2
modifications: staple 4-11
notes: Stapled peptide composition
EC50: ≥ 10 µM

B28: I-13 (peptide)
peptide: Ac-FDA[R8]D[Nle]AAFV[PyrS]FWQ-NH2
modifications: staple 4-11
notes: Stapled peptide composition
EC50: ≥ 10 µM

B29: I-11 (peptide)
peptide: Ac-FDA[R8]D[Bip]AAFV[PyrS″]FWQ-NH2
modifications: staple 4-11; not fully specified; printed as Ac-Phe-Asp-Ala-R8-Asp-Bip-Ala-Ala-Phe-Val-PyrS-Phe-Trp-Gln-NH2
notes: Stapled peptide composition
EC50: ≥ 10 µM

B30: I-17 (peptide)
peptide: Ac-FDA[R8]D[hLeu]AAFV[PyrS]FWQ-NH2
modifications: staple 4-11
notes: Stapled peptide composition
EC50: ≥ 10 µM

B36: I-5 (peptide)
peptide: Ac-FDA[R8]D[Aad]AAFV[PyrS(3)]FWQ-NH2
modifications: staple 4-11; also: earlier-eluting HPLC isomer, E/Z not given here
notes: Stapled peptide composition
EC50: ≥ 10 µM

B38: I-16 (peptide)
peptide: Ac-FDA[R8]D[Cha]AAFV[PyrS]FWQ-NH2
modifications: staple 4-11; not fully specified; printed as Ac-Phe-Asp-Ala-R8-Asp-Cha-Ala-Ala-Phe-Val-PyrS-Phe-Trp-Gln-NH2
notes: Stapled peptide composition
EC50: ≥ 10 µM

Continued, values first:

EC50: ≥ 10 µM
B1: I-37 (peptide)
peptide: Ac-FDA[R5]DDAAFV[SdN]FWQ-NH2
modifications: staple 4-11
notes: Stapled peptide composition

EC50: 8.46 µM
B3: I-28 (peptide)
peptide: FDAXDDAAFVXFWQ
modifications: not fully specified; Ac-Phe-Asp-Ala-ReN-Asp-Asp-Ala-Ala-Phe-Val-S6-Phe-Trp-Gln-NH2 as printed: N-terminal acetyl, C-terminal amide, ReN at 4 stapled to S6 at 11
notes: Stapled peptide composition

EC50: 8.82 µM
B4: I-30 (peptide)
peptide: Ac-FDA[R7″]DDAAFV[PyrS″]FWQ-NH2
modifications: staple 4-11
notes: Stapled peptide composition

EC50: ≥ 10 µM
B8: I-38 (peptide)
peptide: Ac-FDA[R7]DDAAFV[Az(3)]FWQ-NH2
modifications: staple 4-11
notes: Stapled peptide composition

EC50: 9.54 µM
B9: I-35 (peptide)
peptide: Ac-FDA[Az″]DDAAFV[S8]FWQ-NH2
modifications: staple 4-11
notes: Stapled peptide composition

EC50: 7.22 µM
B21: I-31 (peptide)
peptide: Ac-FDA[R7]DDAAFV[PyrS]FWQ-NH2
modifications: staple 4-11; not fully specified; printed as Ac-Phe-Asp-Ala-R7-Asp-Asp-Ala-Ala-Phe-Val-PyrS-Phe-Trp-Gln-NH2
notes: Stapled peptide composition

EC50: ≥ 10 µM
B23: I-29 (peptide)
peptide: FDAXDDAAFVXFWQ
modifications: not fully specified; Ac-Phe-Asp-Ala-ReN-Asp-Asp-Ala-Ala-Phe-Val-S6-Phe-Trp-Gln-NH2 as printed: N-terminal acetyl, C-terminal amide, ReN at 4 stapled to S6 at 11
notes: Stapled peptide composition

EC50: 9.98 µM
B24: I-33 (peptide)
peptide: Ac-FDA[Az(3)]DDAAFV[S7]FWQ-NH2
modifications: staple 4-11
notes: Stapled peptide composition

EC50: ≥ 10 µM
B26: I-34 (peptide)
peptide: Ac-FDA[R8]DDAAFV[SgN]FWQ-NH2
modifications: staple 4-11
notes: Stapled peptide composition

EC50: 7.35 µM
B31: I-32 (peptide)
peptide: FDAXDDAAFVXFWQ
modifications: not fully specified; Ac-Phe-Asp-Ala-Az-Asp-Asp-Ala-Ala-Phe-Val-S7-Phe-Trp-Gln-NH2 as printed: N-terminal acetyl, C-terminal amide, Az at 4 stapled to S7 at 11
notes: Stapled peptide composition

EC50: 7.22 µM
B32: I-25 (peptide)
peptide: Ac-FDA[R5]DDAAFV[SeN]FWQ-NH2
modifications: staple 4-11
notes: Stapled peptide composition

EC50: 8.11 µM
B33: I-26 (peptide)
peptide: Ac-FDA[R6]DDAAFV[SeN]FWQ-NH2
modifications: staple 4-11
notes: Stapled peptide composition

EC50: ≥ 10 µM
B34: I-39 (peptide)
peptide: Ac-FDA[R8]DDAAFV[Az(3)]FWQ-NH2
modifications: staple 4-11; not fully specified; printed as Ac-Phe-Asp-Ala-R8-Asp-Asp-Ala-Ala-Phe-Val-Az-Phe-Trp-Gln-NH2
notes: Stapled peptide composition

EC50: 8.27 µM
B35: I-36 (peptide)
peptide: Ac-FDA[R4]DDAAFV[SeN]FWQ-NH2
modifications: staple 4-11
notes: Stapled peptide composition

EC50: 6.82 µM
B37: I-27 (peptide)
peptide: Ac-FDA[ReN]DDAAFV[S5]FWQ-NH2
modifications: staple 4-11
notes: Stapled peptide composition
